Reference: IntAct's records for PubMed 31515488

B1: Transmembrane 4 L6 family member 4 (Homo sapiens), P48230 (parent)
chain: MCTGGCARCLGGTLIPLAFFGFLANILLFFPGGKVIDDNDHLSQEIWFFGGILGSGVLMIFPALVFLGLKNNDCCGCCGNEGCGKRFAMFTSTIFAVVGFLGAGYSFIISAISINKGPKCLMANSTWGYPFHDGDYLNDEALWNKCREPLNVVPWNLTLFSILLVVGGIQMVLCAIQVVNGLLGTLCGDCQCCGCCGGDGPV
partner: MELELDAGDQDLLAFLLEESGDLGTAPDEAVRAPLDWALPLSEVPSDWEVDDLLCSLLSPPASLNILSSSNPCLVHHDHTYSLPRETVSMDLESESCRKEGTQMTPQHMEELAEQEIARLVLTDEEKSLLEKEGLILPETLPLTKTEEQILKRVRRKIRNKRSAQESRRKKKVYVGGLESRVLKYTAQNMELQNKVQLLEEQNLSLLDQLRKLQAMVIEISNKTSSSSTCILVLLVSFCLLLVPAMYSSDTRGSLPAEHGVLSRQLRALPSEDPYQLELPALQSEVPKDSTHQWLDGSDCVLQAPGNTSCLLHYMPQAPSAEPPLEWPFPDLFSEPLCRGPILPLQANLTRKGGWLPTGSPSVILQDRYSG
B2: Protein LDOC1 (Homo sapiens), O95751 (parent)
chain: MVDELVLLLHALLMRHRALSIENSQLMEQLRLLVCERASLLRQVRPPSCPVPFPETFNGESSRLPEFIVQTASYMLVNENRFCNDAMKVAFLISLLTGEAEEWVVPYIEMDSPILGDYRAFLDEMKQCFGWDDDEDDDDEEEEDDY
partner: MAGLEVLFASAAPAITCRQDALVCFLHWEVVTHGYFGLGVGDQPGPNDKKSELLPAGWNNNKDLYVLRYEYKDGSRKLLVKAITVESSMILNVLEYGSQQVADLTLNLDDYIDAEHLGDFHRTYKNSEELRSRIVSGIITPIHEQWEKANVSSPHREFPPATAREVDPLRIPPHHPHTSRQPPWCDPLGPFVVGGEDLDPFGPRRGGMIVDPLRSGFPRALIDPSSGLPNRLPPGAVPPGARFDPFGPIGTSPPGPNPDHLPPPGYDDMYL
B3: Geminin (Homo sapiens), O75496 (parent)
chain: MNPSMKQKQEEIKENIKNSSVPRRTLKMIQPSASGSLVGRENELSAGLSKRKHRNDHLTSTTSSPGVIVPESSENKNLGGVTQESFDLMIKENPSSQYWKEVAEKRRKALYEALKENEKLHKEIEQKDNEIARLKKENKELAEVAEHVQYMAELIERLNGEPLDNFESLDNQEFDSEEETVEDSLVEDSEIGTCAEGTVSSSTDAKPCI
B4: Protein unc-50 homolog (Homo sapiens), Q53HI1 (parent)
chain: MLPSTSVNSLVQGNGVLNSRDAARHTAGAKRYKYLRRLFRFRQMDFEFAAWQMLYLFTSPQRVYRNFHYRKQTKDQWARDDPAFLVLLSIWLCVSTIGFGFVLDMGFFETIKLLLWVVLIDCVGVGLLIATLMWFISNKYLVKRQSRDYDVEWGYAFDVHLNAFYPLLVILHFIQLFFINHVILTDTFIGYLVGNTLWLVAVGYYIYVTFLGYSALPFLKNTVILLYPFAPLILLYGLSLALGWNFTHTLCSFYKYRVK
partner: B1 partner
B5: Probable RNA-binding protein EIF1AD (Homo sapiens), Q8N9N8 (parent)
chain: MSQATKRKHVVKEVLGEHIVPSDQQQIVRVLRTPGNNLHEVETAQGQRFLVSMPSKYRKNIWIKRGDFLIVDPIEEGEKVKAEISFVLCKDHVRSLQKEGFWPEAFSEVAEKHNNRNRQTQPELPAEPQLSGEESSSEDDSDLFVNTNRRQYHESEEESEEEEAA
partner: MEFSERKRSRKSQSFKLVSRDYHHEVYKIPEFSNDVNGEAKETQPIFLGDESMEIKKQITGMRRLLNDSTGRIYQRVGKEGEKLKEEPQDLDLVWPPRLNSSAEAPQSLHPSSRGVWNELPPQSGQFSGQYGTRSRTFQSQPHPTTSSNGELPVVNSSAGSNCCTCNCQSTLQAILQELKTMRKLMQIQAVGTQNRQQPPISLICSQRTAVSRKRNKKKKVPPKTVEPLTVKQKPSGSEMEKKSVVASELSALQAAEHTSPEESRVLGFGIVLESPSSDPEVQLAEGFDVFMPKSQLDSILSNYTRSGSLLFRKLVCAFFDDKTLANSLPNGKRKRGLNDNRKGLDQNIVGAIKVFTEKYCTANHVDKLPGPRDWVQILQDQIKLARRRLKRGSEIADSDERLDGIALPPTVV
B6: Cyclin-dependent kinase 2-interacting protein (Homo sapiens), Q9BW66 (parent)
chain: MEAKTLGTVTPRKPVLSVSARKIKDNAADWHNLILKWETLNDAGFTTANNIANLKISLLNKDKIELDSSSPASKENEEKVCLEYNEELEKLCEELQATLDGLTKIQVKMEKLSSTTKGICELENYHYGEESKRPPLFHTWPTTHFYEVSHKLLEMYRKELLLKRTVAKELAHTGDPDLTLSYLSMWLHQPYVESDSRLHLESMLLETGHRAL
partner: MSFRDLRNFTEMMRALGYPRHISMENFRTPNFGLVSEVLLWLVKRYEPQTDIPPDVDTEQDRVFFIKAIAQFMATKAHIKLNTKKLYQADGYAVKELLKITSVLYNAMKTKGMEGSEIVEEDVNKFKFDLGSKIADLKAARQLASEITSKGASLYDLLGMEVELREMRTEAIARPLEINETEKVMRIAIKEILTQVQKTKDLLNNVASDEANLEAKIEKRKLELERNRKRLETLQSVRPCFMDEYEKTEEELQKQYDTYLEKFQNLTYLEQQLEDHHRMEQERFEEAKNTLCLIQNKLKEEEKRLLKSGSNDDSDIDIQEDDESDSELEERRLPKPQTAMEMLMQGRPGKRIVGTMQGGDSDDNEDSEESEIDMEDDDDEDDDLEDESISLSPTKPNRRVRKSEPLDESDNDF
B7: FXYD domain-containing ion transport regulator 3 (Homo sapiens), Q14802 (parent)
chain: MQKVTLGLLVFLAGFPVLDANDLEDKNSPFYYDWHSLQVGGLICAGVLCAMGIIIVMSAKCKCKFGQKSGHHPGETPPLITPGSAQS
partner: B1 partner
B8: Uncharacterized protein C12orf50 (Homo sapiens), Q8NA57 (parent)
chain: MEMQQNCSISCFWETQPLGCVKISCIFYHSKPRNINGLFLPPSSNITLQKEIQEGIPLQSQSQEPLKPQENISRPIHHPLVLKTNFEEEEEVDEQNDASSLWTKTPEEIEEKRAIKEMCYKSGEYYRFHTPPDILSSKSMTPTAEKQLEKPLENGSELQEGDSLTVPTKLSQYERQGEIKTSLHGKPKTDIAAFENGGGDCYVPQRVIFLGVDESEALTEEKEITISKCSNTKDNKDSPHPKHSLTTRLVPTTHVLNATENISMKCREDPSSMNDVQPVKKPHFKGVKKRKWIYDEPQNFPNSGMQRAVQAPRPQNKMSYHRNNKNRNAENASYIHVQRDAVRTVALNAPSRSRPTHGSYNKVHANREPKPNLSPDKYTSTSYNDSAWRKRIPFSKTYSKSEKIYPEPRRNGSK
partner: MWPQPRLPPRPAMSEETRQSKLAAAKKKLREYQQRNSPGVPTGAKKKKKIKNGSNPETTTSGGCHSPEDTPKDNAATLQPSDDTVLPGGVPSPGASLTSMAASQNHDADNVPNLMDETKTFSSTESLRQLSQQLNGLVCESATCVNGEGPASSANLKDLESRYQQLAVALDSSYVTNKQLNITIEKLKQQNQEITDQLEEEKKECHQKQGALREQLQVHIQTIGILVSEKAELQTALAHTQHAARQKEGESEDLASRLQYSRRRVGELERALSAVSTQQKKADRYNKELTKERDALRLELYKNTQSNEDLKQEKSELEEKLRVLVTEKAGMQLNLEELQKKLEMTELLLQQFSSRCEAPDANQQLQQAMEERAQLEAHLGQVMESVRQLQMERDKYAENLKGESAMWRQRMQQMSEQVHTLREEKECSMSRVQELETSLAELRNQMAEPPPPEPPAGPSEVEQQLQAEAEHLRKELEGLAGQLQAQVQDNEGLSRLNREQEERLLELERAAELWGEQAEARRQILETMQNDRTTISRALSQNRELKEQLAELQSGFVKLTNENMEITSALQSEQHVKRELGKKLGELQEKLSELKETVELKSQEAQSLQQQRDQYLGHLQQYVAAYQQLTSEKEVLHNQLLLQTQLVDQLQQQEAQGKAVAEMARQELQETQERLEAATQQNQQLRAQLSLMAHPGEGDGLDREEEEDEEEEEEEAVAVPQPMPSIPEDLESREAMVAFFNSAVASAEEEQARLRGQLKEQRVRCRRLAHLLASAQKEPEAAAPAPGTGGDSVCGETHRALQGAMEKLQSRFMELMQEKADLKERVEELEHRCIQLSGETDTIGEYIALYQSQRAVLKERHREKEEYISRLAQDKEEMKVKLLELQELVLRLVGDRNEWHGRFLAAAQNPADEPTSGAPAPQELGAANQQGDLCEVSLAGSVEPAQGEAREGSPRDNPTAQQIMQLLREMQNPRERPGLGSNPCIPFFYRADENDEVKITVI

Variants of: B1
Conditions: with creb3_human CREB3, O43889

Row | effect of a mutation on the interaction | Variant
1 | with no effect | A63V

Variants of: B2
Conditions: with psmf1_human PSMF1, Q92530

Row | effect of a mutation on the interaction | Variant
2 | disrupting interaction strength | L12H

Variants of: B3
Conditions: with zn439_human ZNF439, Q8NDP4
Sequence of zn439_human ZNF439, Q8NDP4 (Q8NDP4 whole entry): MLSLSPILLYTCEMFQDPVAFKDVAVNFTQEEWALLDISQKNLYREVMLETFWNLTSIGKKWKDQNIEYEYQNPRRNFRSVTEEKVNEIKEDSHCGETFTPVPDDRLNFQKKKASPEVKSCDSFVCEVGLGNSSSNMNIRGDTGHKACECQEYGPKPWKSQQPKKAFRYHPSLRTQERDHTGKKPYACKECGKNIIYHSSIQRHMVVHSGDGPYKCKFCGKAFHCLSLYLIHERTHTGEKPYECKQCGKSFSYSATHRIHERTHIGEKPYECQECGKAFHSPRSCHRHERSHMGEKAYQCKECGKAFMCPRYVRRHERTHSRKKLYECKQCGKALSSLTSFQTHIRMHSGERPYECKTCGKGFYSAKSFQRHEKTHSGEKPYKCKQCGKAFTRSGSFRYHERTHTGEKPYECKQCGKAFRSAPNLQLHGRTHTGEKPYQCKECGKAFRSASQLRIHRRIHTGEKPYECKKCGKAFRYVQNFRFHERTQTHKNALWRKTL

Row | effect of a mutation on the interaction | Variant
3 | with no effect | E167D
4 | with no effect | N15H

Variants of: B4
Conditions: with creb3_human CREB3, O43889

Row | effect of a mutation on the interaction | Variant
5 | with no effect | S214G

Variants of: B5
Conditions: with bend7_human BEND7, Q8N7W2

Row | effect of a mutation on the interaction | Variant
6 | with no effect | R48C

Variants of: B6
Conditions: with clua1_human CLUAP1, Q96AJ1

Row | effect of a mutation on the interaction | Variant
7 | disrupting interaction strength | R164H

Variants of: B6
Conditions: with clua1_human CLUAP1, Q96AJ1
Remark: another data set of the same source

Row | effect of a mutation on the interaction | Variant
8 | with no effect | D177N

Variants of: B7
Conditions: with creb3_human CREB3, O43889

Row | effect of a mutation on the interaction | Variant
9 | disrupting interaction strength | G40S

Variants of: B8
Conditions: with goga2_human GOLGA2, Q08379

Row | effect of a mutation on the interaction | Variant
10 | disrupting interaction strength | W292R
11 | with no effect | Q306R
12 | with no effect | Y334C
